Assay results from patent publication US20250215091A1, “Anti-GAL3 Antibodies and Compositions” (Les Laboratoires Servier, priority 2022, published 2025).

Key:
[1] = system: murine model of HOCI-induced fibrosis; assay: HOCI-induced murine fibrosis model: skin thickness; assay type: in vivo, mice; details: second experiment, sustained effect until day 63
Description: (§1) In a first experiment, control mice (n=12) received a daily intradermal injection of 300 μL of sterile phosphate buffer saline (PBS) for 5 consecutive days per week, for a duration of 42 days. HOCI alone and HOCI with antibody (HOCI-antibody) treated mice (n=12 per group) received a daily intradermal injection of 300 μL of HOCI for 5 consecutive days per week, for a duration of 42 days. Antibody-treated mice also received a subcutaneous injection of 20 mg/kg antibody, starting at day minus one and every 5 days between day 5 and day 40. Each antibody was solubilized in sterile, endotoxin-free PBS before injection. In a second experiment, the same protocol was applied, except that duration of the study was 63 days and antibodies were given every 7 days starting at day minus 1 until day 62.
(§2) Mice that received daily injection of HOCI were also treated by intratracheal instillation of 0.5 mg/kg of TD139 compound (HOCI-TD139), a small molecule Gal3 inhibitor. In a first experiment, the administrations started from day 21 and the compound was given every 3 days until day 39. In a second experiment, the administrations started from day 20 and the compound was given every 3 days until day 62. TD139 was initially dissolved in 100% DMSO then diluted 50-fold in endotoxin-free PBS before administration.
The evolution of skin thickness was monitored by using an external caliper, every seven days until sacrifice.

rat model of ARDS [2] = assay: Rat ARDS model (LPS challenge): neutrophils counts in BALF; assay type: in vivo; details: antibodies 14 mg/kg x3 prior to LPS; dexamethasone 10 mg/kg oral; vs LPS group; FIG. 16
Description: (§3) Positive control rats received 3 doses of sterile phosphate buffer at day minus 11, minus 6 and minus 1 prior LPS challenge (0.25 mg/kg by subcutaneous route at day 1). Negative control rats received one oral dose of Dexamethasone at 10 mg/kg (dissolved in 0.5% carboxymethyl cellulose in deionized water) 2 hours prior LPS challenge (0.25 mg/kg by subcutaneous route at day 1). LPS (lipopolysaccharide) causes an acute inflammatory response, whereas dexamethasone has anti-inflammatory effects thus being the reference treatment in this model.
(§4) Antibody-treated rats received 3 doses of antibodies (14 mg/kg) at day minus 11, minus 6 and minus 1 prior to LPS challenge (0.25 mg/kg by subcutaneous route at day 1). Each antibody was solubilized in sterile PBS before injection.
(§5) Control rats of the experiment received 3 doses of sterile phosphate buffer at day minus 11, minus 6 and minus 1 without LPS challenge at day 1.
The impact of anti-Gal3 antibody treatment in LPS challenged rats were evaluated by quantification of neutrophils in Bronchoalveolar Lavage Fluid and compared to the positive control group (LPS challenge with PBS treatment) (FIG. 16). […] Neutrophils numeration levels were decreased after treatment with anti-inflammatory dexamethasone.

rat model of ARDS [3] = assay: Rat ARDS model (LPS challenge): total BALF protein (BCA assay); assay type: in vivo; details: antibodies 14 mg/kg x3 prior to LPS; dexamethasone 10 mg/kg oral; vs LPS group; FIG. 17
Description: as §3, §4, §5
The impact of anti-Gal3 antibody treatment in LPS challenged rats were evaluated by quantification of proteins (by BCA assay) in BALF and compared to the positive control group (LPS challenge with PBS treatment) (FIG. 17). The presence of protein in BALF reflects the damage to the air-blood barrier. […] Total BALF protein numeration levels were decreased after treatment with anti-inflammatory dexamethasone.

plasma TNF alpha = assay: Rat ARDS model (LPS challenge): plasma TNF alpha (MSD); assay type: in vivo; details: 4 h following LPS challenge; vs LPS group; FIG. 18
Description: as §3, §4, §5
For all rats, plasma sampling was performed 4 h following LPS challenge.
The impact of anti-Gal3 antibody treatment in LPS challenged rats were evaluated on plasma cytokine levels, namely TNF alpha and KC-GRO cytokines, and compared to the positive control group (LPS challenge with PBS treatment) (respectively FIG. 18A and FIG. 18B). TNF alpha and KC-GRO were quantified by using the MSD technology from Mesoscale.

[4] = system: murine model of HOCI-induced fibrosis; assay: HOCI-induced murine fibrosis model: skin and lung collagen (Picrosirius red); assay type: in vivo, mice; details: first experiment
Description: as §1, §2
At the day of study termination of the first experiment (day 42), skin and lung samples were taken, formalin-fixed and processed to individual paraffin wax blocks. Sections of skin and lung were cut from the blocks and, after rehydration, stained with Picrosirius Red coloration according to the manufacturer's protocol. Subsequently, each slide was examined and remotely analyzed employing the web-based Image J software

[5] = system: murine model of bleomycin-induced fibrosis; assay: Bleomycin-induced murine lung fibrosis model: Modified Ashcroft fibrosis score; assay type: in vivo, mice
Description: (§6) Control bleomycin mice named ‘Bleo’ received an administration of 1.65 mg/kg bleomycin by the oropharyngeal route on Day 1. […] Antibody-treated mice also received an administration of 1.65 mg/kg bleomycin by the oropharyngeal route on Day 1 and a subcutaneous injection of 20 mg/kg antibody, starting on day minus one and on days 4, 8, 12, 16 and 20. Each antibody was solubilized in sterile, endotoxin-free PBS before injection. Mice that received bleomycin were also treated by oropharyngeal administration of 0.5 mg/kg of TD139 compound (Bleo-TD139), a small molecule Gal3 inhibitor, starting on day 12 and every 2 days until day 20. TD139 was initially dissolved in 100% DMSO.
Mice were submitted for terminal euthanasia on day 21. The lungs were collected for histopathological examination and gravity inflation-fixed with 10% neutral buffered formalin (NBF) before being immersion fixed in NBF.
Sections were taken and then placed on three slides as indicated by the code numbers on FIG. 14.
Three longitudinal sections parallel to and bisecting the main stem bronchus were trimmed from the left lung and right caudal lung lobes and mounted in cassettes 01 and 02, respectively. The right cranial, middle and accessory lung lobes were sectioned longitudinally and mounted in cassette 03. All sections were stained with picrosirius red and scored in a blinded manner by a certified veterinary pathologist using the Modified Ashcroft fibrosis score (0-8), where “0” corresponds to “normality (no fibrosis) and “8” corresponds to the highest possible fibrosis score, as described by Hübner et al. (2008) but based on assessment across the whole section of lung.

[6] = system: murine model of bleomycin-induced fibrosis; assay: Bleomycin-induced murine lung fibrosis model: body weight and body weight metrics; assay type: in vivo, mice
Description: as §6
Mice were weighed daily. Their growth curves are represented on FIG. 12. Control mice had normal growth with a mean percent increase of 6.4% of their initial body weight measured on day minus 1.
Body weight metrics were assessed by using two parameters called Time to weight growth (TWG) and Time to baseline (TTB), shown on FIG. 13. Time to weight growth corresponds to the point of inflection when mice show an ascending growth curve and start to regain weight within the course of the experiment. Time to baseline corresponds to the number of days required for mice to recover their initial body weight (day minus 1). The median TWG was 10 days for the untreated bleomycin group. […] TD139 compound had no efficacy on this parameter (p-value 0.53).

Molecule | HOCI-induced increase in skin thickness ([1]; 63 days, antibody 20 mg/kg s.c. every 7 days, FIG. 7B) | day from which reduction of skin thickness was significant [1] | neutrophils counts in BALF (rat model of ARDS [2]) | total BALF protein (rat model of ARDS [3]) | TNF alpha plasma levels (plasma TNF alpha) | lung collagen levels ([4]; day 42, FIG. 8A) | skin collagen levels ([4]; day 42, vs HOCI group, FIG. 8B) | frequency of animals with fibrosis score of 2 ([5]; day 21, 7.4% in untreated bleomycin group) | frequency of animals with median fibrosis scores of 3 or 4 ([5]; day 21, 87.6% in untreated bleomycin group) | attenuation of lung fibrosis (overall) ([5]; day 21, FIG. 15) | body weight status on day 21 ([6]; bleomycin 1.65 mg/kg, antibody 20 mg/kg s.c.) | recovery of body weight ([6]; bleomycin 1.65 mg/kg, antibody 20 mg/kg s.c., FIG. 12) | reduction of median Time to baseline (TTB) ([6]; median TTB 20 days for untreated bleomycin group, FIG. 13) | reduction of median Time to weight growth (TWG) ([6]; median TWG 10 days for untreated bleomycin group, FIG. 13)
H10: anti-Gal3 monoclonal antibody, IgG1 format; VH SEQ ID NO 44, VL SEQ ID NO 45 (antibody, V domains shown) VH: EVQLVESGGSLVKPGGSLRLSCAASGFTFSNYYMNWVRQAPGKGLEWISYINGASRDISYADFVKGRFTISRDNAKNSLYLQMNSLRAEDTAVYYCVRSSYGYSNYGSGMDVWGRGTLVTVSS VL: QSVLTQPASVSGSPGQSITISCAGTSSDVGGSYNVAWYQQHPGKAPKLMIYNDANRPSGVSNRFSGSKSGNTASLTISGLQAEDEADYYCSSNTADSTRVFGGGTKLEIK | significantly reduced | 14 days | also decreased | also decreased | also decreased, displaying an intermediary profile |  |  |  |  |  |  |  |  | 
D06: anti-Gal3 monoclonal antibody, IgG1 format; VH SEQ ID NO 38, VL SEQ ID NO 39 (antibody, V domains shown, IgG1 constant region) VH: EVQLVESGGSLVKPGGSLRLSCAASGFTFSNYNMNWVRQAPGKGLEWISSIYGSSRYIYYADFVKGRFTISRDNAKNSLYLQMNSLRAEDTAVYYCVRSGYGGMDVWGRGTLVTVSS VL: QSVLTQPASVSGSPGQSITISCAGTSSDVGGYNGVSWYQQHPGKAPKLMIYYDSYRPSGVSNRFSGSKSGNTASLTISGLQAEDEADYYCSSGTDYSTRVFGGGTKLEIK |  |  | also decreased | also decreased | also decreased, displaying an intermediary profile | restored lung collagen levels to those of control mice | non significant downward trend | 30% | 64.5% | clear evidence for attenuation of lung fibrosis | full weight recovery | more rapid recovery of body weight | 5.5 days | 2.8 days
